Laboratory results from the supplement of paper PMC9112550, “Optimization of the antimicrobial peptide Bac7 by deep mutational scanning” (BMC Biology, 2022).

test system: Escherichia coli TOP10; experiment: shrunken log2 fold change of peptide-encoding DNA abundance (4.5 h post-induction vs induction); higher = less antimicrobial activity (less host growth inhibition); conditions: time post-induction: 4.5 h; library: site-saturation at positions 5, 18, 19, 20
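Also: peptides expressed intracellularly from a pBAD plasmid library in pooled LB shake-flask culture, induced with 0.3% L-arabinose, DNA abundance read by NGS, three biological replicates, DESeq2 with apeglm shrinkage.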

Row | Sequence | shrunken log2 fold change
1 | RRIRKRPPRLPRPRPRPTKGPRP | 0.0795
2 | RRIRKRPPRLPRPRPRPTLGPRP | 1.72
3 | RRIRKRPPRLPRPRPRPTLVPRP | 0.528
4 | RRIRKRPPRLPRPRPRPTMQPRP | 0.626
5 | RRIRKRPPRLPRPRPRPTNYPRP | -0.114
6 | RRIRKRPPRLPRPRPRPTPRPRP | 1.05
7 | RRIRKRPPRLPRPRPRPTRCPRP | 0.876
8 | RRIRKRPPRLPRPRPRPTTEPRP | 0.579
9 | RRIRKRPPRLPRPRPRPTTNPRP | 0.486
10 | RRIRKRPPRLPRPRPRPTYMPRP | -0.121
11 | RRIRKRPPRLPRPRPRPVARPRP | 0.397
12 | RRIRKRPPRLPRPRPRPVCSPRP | 0.0361
13 | RRIRKRPPRLPRPRPRPVDEPRP | 0.358
14 | RRIRKRPPRLPRPRPRPVDLPRP | -0.0854
15 | RRIRKRPPRLPRPRPRPVEMPRP | 0.126
16 | RRIRKRPPRLPRPRPRPVETPRP | 0.416
17 | RRIRKRPPRLPRPRPRPVGYPRP | 0.00938
18 | RRIRKRPPRLPRPRPRPVHEPRP | 0.325
19 | RRIRKRPPRLPRPRPRPVKGPRP | 0.322
20 | RRIRKRPPRLPRPRPRPVKPPRP | 0.0508
21 | RRIRKRPPRLPRPRPRPVKQPRP | 0.0206
22 | RRIRKRPPRLPRPRPRPVKWPRP | 0.122
23 | RRIRKRPPRLPRPRPRPVLHPRP | 0.484
24 | RRIRKRPPRLPRPRPRPVMPPRP | 0.244
25 | RRIRKRPPRLPRPRPRPVPNPRP | -0.00404

Row | Sequence | shrunken log2 fold change
26 | RRIRKRPPRLPRPRPRPVQKPRP | 0.242
27 | RRIRKRPPRLPRPRPRPVQTPRP | 0.914
28 | RRIRKRPPRLPRPRPRPVRWPRP | 0.809
29 | RRIRKRPPRLPRPRPRPVSNPRP | -0.212
30 | RRIRKRPPRLPRPRPRPVSSPRP | 0.00728
31 | RRIRKRPPRLPRPRPRPVTQPRP | 0.169
32 | RRIRKRPPRLPRPRPRPVTSPRP | 0.0678
33 | RRIRKRPPRLPRPRPRPVVDPRP | -0.0213
34 | RRIRKRPPRLPRPRPRPWEVPRP | 0.0986
35 | RRIRKRPPRLPRPRPRPWFEPRP | 0.0346
36 | RRIRKRPPRLPRPRPRPWGKPRP | 0.0646
37 | RRIRKRPPRLPRPRPRPWGWPRP | 0.691
38 | RRIRKRPPRLPRPRPRPWHLPRP | -0.596
39 | RRIRKRPPRLPRPRPRPWIWPRP | 1.96
40 | RRIRKRPPRLPRPRPRPWKGPRP | 0.0195
41 | RRIRKRPPRLPRPRPRPWLDPRP | 0.296
42 | RRIRKRPPRLPRPRPRPWMMPRP | 0.211
43 | RRIRKRPPRLPRPRPRPWMRPRP | 0.373
44 | RRIRKRPPRLPRPRPRPWPEPRP | 0.0451
45 | RRIRKRPPRLPRPRPRPWPTPRP | 0.103
46 | RRIRKRPPRLPRPRPRPWQRPRP | -0.0202
47 | RRIRKRPPRLPRPRPRPWSEPRP | 0.00538
48 | RRIRKRPPRLPRPRPRPWYQPRP | 0.218
49 | RRIRKRPPRLPRPRPRPWYSPRP | -0.234
50 | RRIRKRPPRLPRPRPRPYCSPRP | -0.0347

Row | Sequence | shrunken log2 fold change
51 | RRIRKRPPRLPRPRPRPYCVPRP | -0.382
52 | RRIRKRPPRLPRPRPRPYENPRP | -0.517
53 | RRIRKRPPRLPRPRPRPYGEPRP | 0.0585
54 | RRIRKRPPRLPRPRPRPYGHPRP | -0.162
55 | RRIRKRPPRLPRPRPRPYGKPRP | -0.154
56 | RRIRKRPPRLPRPRPRPYGVPRP | 0.0715
57 | RRIRKRPPRLPRPRPRPYHFPRP | -0.031
58 | RRIRKRPPRLPRPRPRPYHYPRP | 0.00414
59 | RRIRKRPPRLPRPRPRPYKQPRP | -0.0754
60 | RRIRKRPPRLPRPRPRPYLYPRP | -0.404
61 | RRIRKRPPRLPRPRPRPYNRPRP | -0.0322
62 | RRIRKRPPRLPRPRPRPYQWPRP | -0.143
63 | RRIRKRPPRLPRPRPRPYRNPRP | 0.00408
64 | RRIRKRPPRLPRPRPRPYTCPRP | -0.175
65 | RRIRKRPPRLPRPRPRPYTPPRP | -0.344
66 | RRIRKRPPRLPRPRPRPYTWPRP | -0.231
67 | RRIRKRPPRLPRPRPRPYVRPRP | 0.00408
68 | RRIRKRPPRLPRPRPRPYWMPRP | -0.19
69 | RRIRKRPPRLPRPRPRPYYRPRP | -0.827
70 | RRIRKRPPRLPRPRPRPYYSPRP | -0.373
71 | RRIRLRPPRLPRPRPRPAAVPRP | 0.376
72 | RRIRLRPPRLPRPRPRPACFPRP | 0.259
73 | RRIRLRPPRLPRPRPRPADEPRP | 0.167
74 | RRIRLRPPRLPRPRPRPADNPRP | -0.26
75 | RRIRLRPPRLPRPRPRPADRPRP | -0.0121
